{"source": "patent US20200377588A1", "about": "“Highly Versatile Method of Presenting Cyclic Peptide on Protein Structure” (The University of Tokyo, priority 2017, published 2020)", "molecules": {"B1": {"name": "PLAP: full-length human placental alkaline phosphatase with Myc and Hisx6 tags, no cyclic peptide fused; control (protein, UniProt P05187 1-535, looked up)", "chain": "MLGPCMLLLLLLLGLRLQLSLGIIPVEEENPDFWNREAAEALGAAKKLQPAQTAAKNLIIFLGDGMGVSTVTAARILKGQKKDKLGPEIPLAMDRFPYVALSKTYNVDKHVPDSGATATAYLCGVKGNFQTIGLSAAARFNQCNTTRGNEVISVMNRAKKAGKSVGVVTTTRVQHASPAGTYAHTVNRNWYSDADVPASARQEGCQDIATQLISNMDIDVILGGGRKYMFRMGTPDPEYPDDYSQGGTRLDGKNLVQEWLAKRQGARYVWNRTELMQASLDPSVTHLMGLFEPGDMKYEIHRDSTLDPSLMEMTEAALRLLSRNPRGFFLFVEGGRIDHGHHESRAYRALTETIMFDDAIERAGQLTSEEDTLSLVTADHSHVFSFGGYPLRGSSIFGLAPGKARDRKAYTVLLYGNGPGYVLKDGARPDVTESESGSPEYRQQSAVPLDEETHAGEDVAVFARGPQAHLVHGVQEQTFIAHVMAFAACLEPYTACDLAPPAGTTDAAHPGRSVVPALLPLLAGTLLLLETATAP", "modifications": "full-length Myc and His6 tags", "notes": "full-length human placental alkaline phosphatase with Myc and Hisx6 tags, no cyclic peptide fused; control"}}, "key": {"Plexin B1-PA": {"molecular_target": "T1, Plexin B1-PA (Homo sapiens, UniProt O43157)", "T1 construct": "made in house; host or cells: Expi293F cells (secreted, culture supernatant)", "T1 sequence (O43157 20-1490 limits assumed)": "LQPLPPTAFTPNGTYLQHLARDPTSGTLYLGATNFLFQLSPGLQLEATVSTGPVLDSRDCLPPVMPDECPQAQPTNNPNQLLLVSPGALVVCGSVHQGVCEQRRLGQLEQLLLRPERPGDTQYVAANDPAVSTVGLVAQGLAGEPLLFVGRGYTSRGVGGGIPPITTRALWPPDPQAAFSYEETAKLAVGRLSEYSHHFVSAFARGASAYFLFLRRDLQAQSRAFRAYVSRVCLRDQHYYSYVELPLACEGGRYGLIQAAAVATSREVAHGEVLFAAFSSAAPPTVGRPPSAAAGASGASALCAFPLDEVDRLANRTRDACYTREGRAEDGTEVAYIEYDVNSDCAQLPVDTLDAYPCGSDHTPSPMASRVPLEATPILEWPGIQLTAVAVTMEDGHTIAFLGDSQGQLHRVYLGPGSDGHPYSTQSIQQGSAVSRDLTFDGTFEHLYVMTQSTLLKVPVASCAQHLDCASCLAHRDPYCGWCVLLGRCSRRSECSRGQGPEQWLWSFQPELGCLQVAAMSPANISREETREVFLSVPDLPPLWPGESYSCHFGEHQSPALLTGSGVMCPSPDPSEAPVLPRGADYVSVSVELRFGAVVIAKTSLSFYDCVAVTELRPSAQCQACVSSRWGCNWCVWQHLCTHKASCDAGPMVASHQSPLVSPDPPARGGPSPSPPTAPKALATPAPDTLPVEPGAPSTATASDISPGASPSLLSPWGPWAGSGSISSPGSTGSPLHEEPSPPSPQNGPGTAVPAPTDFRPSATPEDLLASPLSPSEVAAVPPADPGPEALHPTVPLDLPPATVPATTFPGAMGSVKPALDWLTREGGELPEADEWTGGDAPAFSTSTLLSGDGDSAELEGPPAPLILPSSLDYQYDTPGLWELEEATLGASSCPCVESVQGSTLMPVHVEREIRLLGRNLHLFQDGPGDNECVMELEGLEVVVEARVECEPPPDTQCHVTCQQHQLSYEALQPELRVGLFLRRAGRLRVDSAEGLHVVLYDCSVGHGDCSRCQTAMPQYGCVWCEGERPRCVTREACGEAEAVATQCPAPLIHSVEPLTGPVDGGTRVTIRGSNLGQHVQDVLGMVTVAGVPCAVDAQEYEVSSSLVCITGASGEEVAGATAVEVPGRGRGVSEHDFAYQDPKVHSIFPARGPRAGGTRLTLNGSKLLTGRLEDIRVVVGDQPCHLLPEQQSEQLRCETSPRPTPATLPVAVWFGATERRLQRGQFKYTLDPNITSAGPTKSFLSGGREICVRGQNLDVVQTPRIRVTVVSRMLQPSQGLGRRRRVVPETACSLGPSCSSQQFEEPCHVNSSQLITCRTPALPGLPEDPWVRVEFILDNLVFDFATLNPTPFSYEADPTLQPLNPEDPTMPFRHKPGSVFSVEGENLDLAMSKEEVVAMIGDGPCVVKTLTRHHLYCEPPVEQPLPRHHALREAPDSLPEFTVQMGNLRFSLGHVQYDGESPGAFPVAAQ", "test": "pull-down type binding experiment, Plexin B1-PA captured on NZ-1 Sepharose, SDS-PAGE", "description": "(§1) A pull-down type binding experiment was performed to study whether or not Fn10-Fc having various cyclic peptides fused therein retained its binding ability, which the cyclic peptides had before fusion, to binding molecules. In accordance with the method described in Protein Exp. Purification, 2014, 95, 240-247, respective constructs encoding fusion proteins having a PA tag (product of Wako Pure Chemical Industries) added to the C terminus of an extracellular region of four binding molecules (each, single-pass membrane receptor) were created and the resulting constructs were each incorporated in an expression vector pcDNA3.1 (product of Thermo Fisher Scientific). After transient expression in Expi293F cells by the above-described method while using the vector, respective culture supernatants containing Plexin B1-PA, Met-PA, EGFR-PA, and TrkB-PA, which were soluble receptor fragments, were prepared.\n(§2) To 0.5 mL of the culture supernatant containing the PA-tag added receptor extracellular region, 30 μL of Sepharose (product of Wako Pure Chemical Industries) on which NZ-1, an anti-PA tag antibody, was immobilized and the resulting mixture was mixed by rotation for 2 hours to capture the binding molecule on Sepharose. […]"}, "EGFR-PA": {"molecular_target": "T2, EGFR-PA (Homo sapiens, UniProt P00533)", "T2 construct": "made in house; host or cells: Expi293F cells (secreted, culture supernatant)", "test": "pull-down type binding experiment, EGFR-PA captured on NZ-1 Sepharose, SDS-PAGE", "settings": "Example 1, Fn10-Fc mutants, culture supernatant, FIG. 5", "description": "as §1, §2"}, "Met-PA": {"molecular_target": "T3, Met-PA (Homo sapiens, UniProt P08581)", "T3 construct": "made in house; host or cells: Expi293F cells (secreted, culture supernatant)", "T3 sequence (P08581 25-932 limits assumed)": "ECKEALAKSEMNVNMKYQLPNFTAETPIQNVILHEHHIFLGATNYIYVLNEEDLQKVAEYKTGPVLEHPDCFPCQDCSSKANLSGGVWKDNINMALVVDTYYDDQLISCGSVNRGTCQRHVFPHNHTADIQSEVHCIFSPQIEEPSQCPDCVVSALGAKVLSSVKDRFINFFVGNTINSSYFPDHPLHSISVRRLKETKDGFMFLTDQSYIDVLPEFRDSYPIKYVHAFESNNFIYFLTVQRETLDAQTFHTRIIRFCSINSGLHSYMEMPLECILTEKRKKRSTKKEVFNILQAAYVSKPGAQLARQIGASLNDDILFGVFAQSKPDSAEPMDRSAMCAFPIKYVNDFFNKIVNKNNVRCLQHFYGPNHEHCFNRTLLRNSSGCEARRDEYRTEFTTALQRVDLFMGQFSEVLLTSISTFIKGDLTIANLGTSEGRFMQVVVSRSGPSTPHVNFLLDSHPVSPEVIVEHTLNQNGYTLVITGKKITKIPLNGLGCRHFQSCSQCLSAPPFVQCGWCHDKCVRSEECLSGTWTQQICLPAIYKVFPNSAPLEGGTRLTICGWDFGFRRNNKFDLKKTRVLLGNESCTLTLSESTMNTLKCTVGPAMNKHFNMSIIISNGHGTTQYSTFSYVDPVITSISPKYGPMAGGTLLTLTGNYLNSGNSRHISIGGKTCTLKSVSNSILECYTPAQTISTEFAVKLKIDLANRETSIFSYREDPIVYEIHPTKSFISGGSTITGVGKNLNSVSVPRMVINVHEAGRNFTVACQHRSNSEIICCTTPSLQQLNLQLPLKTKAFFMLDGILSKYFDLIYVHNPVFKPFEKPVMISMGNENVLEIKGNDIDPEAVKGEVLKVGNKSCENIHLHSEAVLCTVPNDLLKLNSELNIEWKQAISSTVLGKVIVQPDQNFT", "test": "pull-down type binding experiment, Met-PA captured on NZ-1 Sepharose, SDS-PAGE", "settings": "Example 1, Fn10-Fc mutants, culture supernatant, FIG. 5"}, "TrkB-PA": {"molecular_target": "T4, TrkB-PA (Homo sapiens, UniProt Q16620)", "T4 construct": "made in house; host or cells: Expi293F cells (secreted, culture supernatant)", "test": "pull-down type binding experiment, TrkB-PA captured on NZ-1 Sepharose, SDS-PAGE", "settings": "Example 1, Fn10-Fc mutants, culture supernatant, FIG. 5", "description": "as §1, §2"}, "Plexin B1-Fc": {"molecular_target": "T5, Plexin B1-Fc (Homo sapiens, UniProt O43157)", "T5 construct": "Protein A Sepharose that had captured a soluble receptor fragment Plexin B1-Fc therein", "T5 sequence (O43157 20-1490 limits assumed)": "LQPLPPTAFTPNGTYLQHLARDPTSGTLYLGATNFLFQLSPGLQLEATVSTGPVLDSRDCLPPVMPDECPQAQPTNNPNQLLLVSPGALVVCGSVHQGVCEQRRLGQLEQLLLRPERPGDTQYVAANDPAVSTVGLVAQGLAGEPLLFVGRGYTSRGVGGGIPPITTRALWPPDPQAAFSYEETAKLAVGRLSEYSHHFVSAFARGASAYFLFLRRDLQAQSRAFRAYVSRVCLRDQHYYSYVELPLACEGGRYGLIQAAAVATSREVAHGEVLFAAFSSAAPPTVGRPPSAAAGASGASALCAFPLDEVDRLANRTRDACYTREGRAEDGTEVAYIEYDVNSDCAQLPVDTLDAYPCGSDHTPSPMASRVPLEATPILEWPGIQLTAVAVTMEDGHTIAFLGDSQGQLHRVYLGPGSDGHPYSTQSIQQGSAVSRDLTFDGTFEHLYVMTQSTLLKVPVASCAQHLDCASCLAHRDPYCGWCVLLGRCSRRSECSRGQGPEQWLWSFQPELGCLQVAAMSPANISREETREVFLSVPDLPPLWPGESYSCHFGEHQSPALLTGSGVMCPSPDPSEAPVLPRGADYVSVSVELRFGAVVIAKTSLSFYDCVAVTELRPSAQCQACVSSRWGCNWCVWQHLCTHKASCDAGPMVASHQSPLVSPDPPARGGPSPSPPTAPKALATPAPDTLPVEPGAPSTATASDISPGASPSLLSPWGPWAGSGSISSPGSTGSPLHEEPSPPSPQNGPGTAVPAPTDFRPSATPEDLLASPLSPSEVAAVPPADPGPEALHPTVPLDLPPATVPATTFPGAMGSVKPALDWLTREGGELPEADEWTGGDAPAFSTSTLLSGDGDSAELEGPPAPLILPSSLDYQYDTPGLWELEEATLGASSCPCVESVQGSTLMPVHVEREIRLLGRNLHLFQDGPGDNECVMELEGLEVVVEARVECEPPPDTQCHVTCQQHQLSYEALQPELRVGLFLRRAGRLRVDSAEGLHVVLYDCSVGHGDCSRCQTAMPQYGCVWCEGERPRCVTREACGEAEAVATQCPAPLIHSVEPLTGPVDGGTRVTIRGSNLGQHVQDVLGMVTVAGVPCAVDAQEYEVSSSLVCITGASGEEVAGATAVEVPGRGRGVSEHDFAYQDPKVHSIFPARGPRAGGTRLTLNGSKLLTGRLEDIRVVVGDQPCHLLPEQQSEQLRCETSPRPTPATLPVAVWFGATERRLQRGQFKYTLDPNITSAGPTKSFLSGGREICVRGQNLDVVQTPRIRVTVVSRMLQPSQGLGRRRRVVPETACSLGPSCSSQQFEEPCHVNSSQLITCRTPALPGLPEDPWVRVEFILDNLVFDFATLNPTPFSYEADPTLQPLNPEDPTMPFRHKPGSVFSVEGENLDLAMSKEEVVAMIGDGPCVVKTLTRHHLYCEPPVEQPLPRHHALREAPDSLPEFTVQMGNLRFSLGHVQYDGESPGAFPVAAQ", "test": "pulldown, Plexin B1-Fc captured on protein A-Sepharose, SDS-PAGE", "format": "binding", "settings": "Example 7, PLAP mutants, FIG. 27", "source_text": "It is to be noted, however, that for the mP6-9 peptide fusion protein, not Plexin B1-PA but Plexin B1-Fc protein was used as a binding molecule and as pulldown beads, not NZ-1-Sepharose but protein A-Sepharose was used."}, "Met-Fc": {"molecular_target": "T6, Met-Fc (Homo sapiens, UniProt P08581)", "T6 construct": "captured a soluble receptor fragment Plexin B1-Fc or Met-Fc therein", "T6 sequence (P08581 25-932 limits assumed)": "as the sequence (P08581 25-932 limits assumed) above", "test": "pulldown, Met-Fc captured on Protein A Sepharose, SDS-PAGE", "format": "binding", "settings": "Example 7, PLAP mutants, FIG. 27", "source_text": "Binding of the resulting cyclic peptide fusion protein (PLAP mutant) to Protein A Sepharose that had captured a soluble receptor fragment Plexin B1-Fc or Met-Fc therein by the method described above I Example 1 was studied by the pulldown method."}}, "data": [{"molecule": "hGH: full-length human growth hormone with Hisx8 tag and TEV site, no cyclic peptide fused; control", "values": [{"measurement": "binding to Plexin B1-PA (pulldown)", "setting": "Plexin B1-PA; Example 5, hGH mutants, FIG. 20B", "result": "does not bind to Plexin B1-PA"}]}, {"molecule": "Fn10-Fc: tenth Type III repeat domain of human fibronectin (residues 1418 to 1509) fused to human IgG1 Fc, no peptide inserted; control", "values": [{"measurement": "binding to Plexin B1-PA (pulldown)", "setting": "Plexin B1-PA; Example 1, Fn10-Fc mutants, culture supernatant, FIG. 5", "result": "did not show a binding property"}, {"measurement": "binding to EGFR-PA (pulldown)", "setting": "EGFR-PA", "result": "did not show a binding property"}, {"measurement": "binding to Met-PA (pulldown)", "setting": "Met-PA", "result": "did not show a binding property"}, {"measurement": "binding to TrkB-PA (pulldown)", "setting": "TrkB-PA", "result": "did not show a binding property"}]}, {"molecule": "B1", "values": [{"measurement": "binding to Plexin B1-Fc (pulldown)", "setting": "Plexin B1-Fc", "result": "does not bind"}, {"measurement": "binding to Met-Fc (pulldown)", "setting": "Met-Fc", "result": "does not bind"}]}]}
